# Test results published in article PMC8880518, “Regulation of the Leucine Metabolism in Mortierella alpina” (Journal of Fungi, 2022).
# Read-outs that look alike come from different tables or passages of the source.
# B1: α-isopropylmalate synthase LeuA1 (Mortierella alpina) (protein)
# chain: MAQANKDKLIIFDTTLRDGEQSPGVTLTVNEKIEIAKQLSRLGVDVLEAGFPVASQGDFDAVERIAIEVGPLMVGREALGKPITIAGLARAVPADIQRCYDAIAKAPHKRIHTFLATSDIHLEHKLKISRDECVKRAVAAVSFAKTLVQDVEFSPEDAGRSDQDFLCKVLSAVIEAGATTLNIPDTVGYNMPEEYGSMIKYLIANTKGSDTVIWSAHCHNDLGLATANTLSGIMNGIRQVEVTINGIGERAGNTAMEEVVMAIHTHPNFFPVYHTINTPLFFRISQLVSSLSGMAVQSNKAIVGANAFLHESGIHQDGVLKNKTTYEIISPETVGANTVNLVLGKHSGRAAFKSRLQELGFGELSDEEFQVAFNSFKTLADSKKRVTEQDLLALLSDQVSAASGDKATFVIKSLQVVSGTSFATATVQLQNSQTGDVVVDAAIGKSGPVEAVFLAIQRLVGKRIRLLKFDITAVGEGVDALGQVSVKIAEDTSSPGSSDNDETAEEAKDSESKANEISQATYHGHGADSDIIQAATKAYLNAINRLVANENERLLGERKVDV
# notes: N-terminally His6-tagged LeuA1
# How the values were obtained:
# [1] = biological target: T1, α-isopropylmalate synthase LeuA1 (Mortierella alpina, UniProt A0A9P6IVH7); test: continuous DTNB assay of CoA release with purified recombinant enzyme; format: biochemical
# T1 construct: gene BGZ70_001638; N-terminally His6-tagged LeuA1
# [2] = biological target: LeuA1, α-isopropylmalate synthase of Mortierella alpina (Mortierella alpina); test: SEC; size exclusion chromatography of the purified His6-tagged proteins in solution; conditions are in the Supplementary Materials
# [3] = biological target: T2, BCAA aminotransferase BatA (Mortierella alpina, UniProt A0A9P6M176); test: activity of purified enzyme with and without PLP (HILIC-UHPLC-MS); format: biochemical
# T2 construct: gene BCAT1; 374 aa), N-terminally His6-tagged
# T2 sequence (A0A9P6M176 entry or part of it): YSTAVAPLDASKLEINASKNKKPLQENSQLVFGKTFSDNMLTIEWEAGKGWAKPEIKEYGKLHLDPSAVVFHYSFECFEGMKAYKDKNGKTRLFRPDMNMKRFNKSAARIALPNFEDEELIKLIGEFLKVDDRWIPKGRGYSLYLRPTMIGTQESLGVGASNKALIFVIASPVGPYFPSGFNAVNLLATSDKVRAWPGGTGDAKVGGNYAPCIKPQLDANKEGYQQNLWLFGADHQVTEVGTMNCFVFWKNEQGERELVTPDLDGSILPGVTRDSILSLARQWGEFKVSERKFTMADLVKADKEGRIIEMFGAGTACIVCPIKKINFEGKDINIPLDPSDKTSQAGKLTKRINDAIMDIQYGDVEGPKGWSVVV
# [4] = substrate: CC(C)C(=O)C(=O)O; test: Michaelis-Menten kinetics (KM), DTNB assay with purified recombinant enzyme; format: biochemical, Mortierella alpina; details: divalent cation (Mg2+, exchangeable with Ca2+ or Mn2+) substrate binding pocket
# [5] = substrate: CCC(=O)C(=O)O; test: as above; format: biochemical, Mortierella alpina; details: divalent cation (Mg2+, exchangeable with Ca2+ or Mn2+)
# purified protein = substrate: CC(=O)SCCNC(=O)CCNC(=O)[C@H](O)C(C)(C)COP(=O)(O)OP(=O)(O)OC[C@H]1O[C@@H](n2cnc3c(N)ncnc32)[C@H](O)[C@@H]1OP(=O)(O)O; test: purified protein; details: divalent cation (Mg2+, exchangeable with Ca2+ or Mn2+)
molecule,measurement,setting,value
"CC(C)CC(=O)C(=O)O [KIC, α-ketoisocaproate]",Ki,[1]; read-out: KI,293 ± 30.4 µM
"CCC(=O)SCCNC(=O)CCNC(=O)[C@H](O)C(C)(C)COP(=O)(O)OP(=O)(O)OC[C@H]1O[C@@H](n2cnc3c(N)ncnc32)[C@H](O)[C@@H]1OP(=O)(O)O [Prop-CoA, propionyl-CoA]",Ki,[1],320 ± 121 µM
"CC(C)C[C@H](N)C(=O)O [Leu, L-leucine]",Ki,[1]; read-out: KI,53 ± 2.5 µM
"LeuA1, α-isopropylmalate synthase of Mortierella alpina (enzyme)",stoichiometry N,[2],6
"Cc1ncc(COP(=O)(O)O)c(C=O)c1O [PLP, pyridoxal phosphate]",activity of purified enzyme with and without PLP (HILIC-UHPLC-MS),[3],"The enzyme converted all BCAAs (L-Ile, L-Leu, L-Val) and their respective α-keto acids in a PLP-dependent manner"
B1,Km,[4],56.9 ± 6.3 µM
same,kcat,[4],26.6 ± 1.2 s⁻¹
same,kcat/Km,[4],467000 M⁻¹ s⁻¹
same,Km,[5],280.8 ± 45.0 µM
same,kcat,[5],47.4 ± 5.41 s⁻¹
same,kcat/Km,[5],169000 M⁻¹ s⁻¹
same,Km,purified protein,28.6 ± 4.1 µM
same,kcat,purified protein,25 s⁻¹
same,kcat/Km,purified protein,873000 M⁻¹ s⁻¹
